In patent US20100249383A1, “Novel Ligand Involved In The Transmigration Of Leukocytes Across the Endothelium and Uses Therefor” (The Regents of The University of California and The Burnham …, priority 2001, published 2010):

T1: RAGE from bovine lung (native, purified/immunoprecipitated) (bovine, UniProt Q28173 23-416, carries PNGaseF-sensitive carboxylated N-linked oligosaccharides)
T1 construct: Released from mAbGB3.1 beads after immunoprecipitation of bovine lung homogenate; also called bovine lung RAGE; bovine RAGE
T1 sequence (looked up): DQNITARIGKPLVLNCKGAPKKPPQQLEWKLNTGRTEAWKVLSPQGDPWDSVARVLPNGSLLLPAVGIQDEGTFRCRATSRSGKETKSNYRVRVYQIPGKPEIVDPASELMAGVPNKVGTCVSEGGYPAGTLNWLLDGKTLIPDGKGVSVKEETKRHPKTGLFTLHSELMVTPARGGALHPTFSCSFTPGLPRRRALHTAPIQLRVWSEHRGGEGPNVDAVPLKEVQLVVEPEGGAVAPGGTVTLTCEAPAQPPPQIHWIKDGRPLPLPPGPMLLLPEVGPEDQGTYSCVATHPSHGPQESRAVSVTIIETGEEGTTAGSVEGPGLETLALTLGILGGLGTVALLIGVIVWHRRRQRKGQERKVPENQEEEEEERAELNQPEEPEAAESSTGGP

T2: RAGE deglycosylated by PNGase F (bovine, UniProt Q28173 23-416, N-linked oligosaccharides removed by PNGase F (mass decreased by about 4500 daltons))
T2 construct: also called deglycosylated RAGE; PNGase F digested RAGE
T2 sequence (looked up): T1 sequence (looked up)

T3: human S100A9 (human, UniProt P06702 2-114, limits assumed)
T3 construct: also called MRP14; MRP9
T3 sequence (looked up): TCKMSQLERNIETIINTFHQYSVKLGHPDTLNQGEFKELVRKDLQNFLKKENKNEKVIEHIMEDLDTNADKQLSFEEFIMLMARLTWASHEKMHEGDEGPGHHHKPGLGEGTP

B1: amphoterin (baculovirus expressed rat amphoterin) (ligand, UniProt P63159 2-215, looked up)
chain: GKGDPKKPRGKMSSYAFFVQTCREEHKKKHPDASVNFSEFSKKCSERWKTMSAKEKGKFEDMAKADKARYEREMKTYIPPKGETKKKFKDPNAPKRPPSAFFLFCSEYRPKIKGEHPGLSIGDVAKKLGEMWNNTAADDKQPYEKKAAKLKEKYEKDIAAYRAKGKPDAAKKGVVKAEKSKKKKEEEDDEEDEEDEEEEEEEEDEDEEEDDDDE
modifications: radioiodinated (125I) in the binding assays
notes: the only purified amphoterin in the materials is the baculovirus expressed rat protein; also called recombinant amphoterin
B2: human S100A8 (other, UniProt P05109 1-93, looked up)
chain: MLTELEKALNSIIDVYHKYSLIKGNFHAVYRDDLKKLLETECPQYIRKKGADVWFKELDINTDGAVNFQEFLILVIKMGVAAHKKSHEESHKE
notes: also called MRP8; CP-10

Legend:
[1] = biological target: T1, RAGE from bovine lung (native, …); assay: saturation binding of 125I amphoterin to RAGE immobilized on microtiter wells, non-linear regression
Protocol: (§1) Amphoterin was radioiodinated using Na ¹²⁵I and Iodo-Beads Iodinating Reagent (Pierce) to a specific activity of 5×10³ cpm/ng protein. Saturation binding experiments were done by a slight modification of the method of Hori et al (Hori at al., J. Biol. Chem., 270:25752-61 [1995]). Briefly, purified RAGE was immobilized on microliter wells and the wells blocked with 3% BSA. Wells were incubated at 4° C. overnight with increasing concentrations of ¹²⁵I amphoterin in HBSS containing 0.1% BSA in the presence or absence of desialylated carboxylate-enriched (COO⁻) or CONHMe bovine lung glycopeptides, or 20 μg/ml mAbGB3.1 or an unrelated anti-carbohydrate monoclonal antibody, or 100 fold excess of unlabeled amphoterin. Binding was also tested on RAGE deglycosylated by PNGase F under non-denaturing conditions. Wells were washed, bound amphoterin was eluted with 2 M NaCl, and radioactivity was measured using a gamma counter. Non-linear regression analysis was done using the GraphPad Prism program.
(§2) Specific binding is defined as the total binding minus non-specific binding measured in presence of 100-fold excess of unlabeled amphoterin. The […] binding was 3-4% of total binding. Then, the possibility that amphoterin binding is dependent upon the N-glycans on RAGE was examined.

[2] = biological target: T2, RAGE deglycosylated by PNGase F; assay: saturation binding of 125I amphoterin to immobilized RAGE deglycosylated by PNGase F
Protocol: as §1
The binding of a single concentration of labeled ligand was also tested in presence of various concentrations of COO⁻ or neutral glycopeptides. […] Binding was also found to be reduced in presence of mAbGB3.1, while a non-relevant antibody is ineffective (FIG. 24, Panel C).

[3] = biological target: T1, RAGE from bovine lung (native, …); assay: saturation binding of 125I amphoterin to immobilized RAGE in presence of soluble COO- glycopeptides
Protocol: as §1, §2

human S100A9 = biological target: T3, human S100A9; assay: co-purification from human neutrophil cytosol
From the text: Chem., 266:7706 [1991]). […] The proteins remained as heteromeric complexes through purification, were even retained on YM10 and YM30 ultrafiltration membranes, and could not be separated into individual proteins without denaturation. The molecular masses of the purified proteins as determined by SDS gels was 11 kDa and 14 kDa for S100A8 and S100A9 respectively (data not shown). […] Binding to BSA coupled asialo-COO⁻ bovine lung glycopeptides immobilized on microtiter plates was inhibited in presence of 0.3 M asialo-COO⁻ glycopeptides, but much less effectively by the asialo-CONHMe-glycopeptides. In FIG. 19, each point is the mean of two determinations.
All steps were carried out at 4° C., unless otherwise indicated. […] Briefly, 100 ml peripheral blood was obtained from healthy volunteers and neutrophils obtained by Ficoll-Hypaque centrifugation as indicated above. The cells were lysed in PBS containing 1 mM DTT, 1% NP40 and protease inhibitors, and subjected to ultracentrifugation at 160,000×g for 30 min. The protein in the supernatant was adjusted to 2 mg/ml with the above buffer, and the solution stirred on ice. Solid ammonium sulfate was slowly added to a final concentration of 75% (w/v) and stirred for 1 h. […] S100A8/A9 proteins eluted at 35-50% acetonitrile, and were >90% pure as determined by SDS gels.

[4] = biological target: the molecule itself; assay: BS3 chemical cross-linking of neutrophil extracts, immunoblot
Protocol: In these experiments, 96-well plates were coated with 250 ng of BSA coupled […] asialo-COO⁻ lung glycopeptides for 4 h at 37° C. and blocked with 3% BSA in PBS overnight. Human neutrophil extracts were sequentially incubated in each of four wells for 30 min/well at 37° C. in leukocyte activation buffer (described above), in presence or absence of 200 μM […] asialo-COO⁻ glycopeptides or asialo-CONHMe-glycopeptides. After incubation, the supernatants from the incubation wells were collected and protein depletion was analyzed by immunoblotting using the respective antibodies. For detection of S100A8/A9 complexes, the proteins in the supernatants were stabilized by chemical cross-linking using bis-sulfosuccinimidyl suberate (BS³) as known in the art (See, Staros, Biochem., 21:3590 [1982]). Briefly, the cross linker was added from a fresh 2 mM stock solution to neutrophil lysates obtained as described above, to a final concentration of 200 μM, and the mixture was incubated at room temperature for 30 min. Reactions were quenched by the addition of 1 M Tris to a final concentration of 10 mM and samples were stored at −80° C., until they were assayed. Cross-linked samples were incubated with 2-mercaptoethanol prior to separation on SDS-PAGE. Since crude lysates were used in the cross-linking, it is conceivable that non-specific cross-linking could occur. […]

Binder	Kd [1] [nM]	Kd [2] [nM]	Kd [3] [nM]	binding result (human S100A9)	binding result [4]
B1	~10.7	~18.2	~12.6		
B2				binds	binds
